T1: GRK7(h) (human, UniProt Q8WTQ7 1-553, limits assumed)
T1 sequence (looked up): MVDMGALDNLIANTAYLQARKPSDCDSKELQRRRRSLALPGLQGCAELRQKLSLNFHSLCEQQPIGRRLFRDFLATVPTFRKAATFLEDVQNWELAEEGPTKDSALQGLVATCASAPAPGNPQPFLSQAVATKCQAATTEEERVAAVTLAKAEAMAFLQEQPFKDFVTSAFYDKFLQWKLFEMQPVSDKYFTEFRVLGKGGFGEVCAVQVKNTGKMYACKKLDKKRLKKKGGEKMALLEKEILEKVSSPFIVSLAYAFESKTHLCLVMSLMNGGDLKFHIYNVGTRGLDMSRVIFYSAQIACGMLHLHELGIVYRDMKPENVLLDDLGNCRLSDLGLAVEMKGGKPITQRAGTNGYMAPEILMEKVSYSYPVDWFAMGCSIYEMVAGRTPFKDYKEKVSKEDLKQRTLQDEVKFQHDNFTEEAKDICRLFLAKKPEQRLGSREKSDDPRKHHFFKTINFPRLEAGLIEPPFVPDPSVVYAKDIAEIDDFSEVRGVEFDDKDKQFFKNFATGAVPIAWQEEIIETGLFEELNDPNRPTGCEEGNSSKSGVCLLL

T2: Fms(h) (human, UniProt P07333 538-972, limits assumed)
T2 sequence (looked up): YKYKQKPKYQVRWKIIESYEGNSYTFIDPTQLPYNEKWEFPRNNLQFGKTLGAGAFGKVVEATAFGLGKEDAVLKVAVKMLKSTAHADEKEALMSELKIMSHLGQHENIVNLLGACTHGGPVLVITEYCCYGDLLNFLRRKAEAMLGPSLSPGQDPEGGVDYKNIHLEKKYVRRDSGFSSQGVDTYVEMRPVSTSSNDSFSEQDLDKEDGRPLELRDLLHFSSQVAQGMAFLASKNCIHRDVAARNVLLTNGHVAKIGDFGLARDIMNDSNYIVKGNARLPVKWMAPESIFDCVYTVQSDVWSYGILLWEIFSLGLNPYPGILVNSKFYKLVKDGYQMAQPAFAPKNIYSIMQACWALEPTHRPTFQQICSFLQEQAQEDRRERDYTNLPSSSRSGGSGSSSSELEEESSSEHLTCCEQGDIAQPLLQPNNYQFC

T3: MST2(h) (human, UniProt Q13188 1-491, limits assumed)
T3 sequence (looked up): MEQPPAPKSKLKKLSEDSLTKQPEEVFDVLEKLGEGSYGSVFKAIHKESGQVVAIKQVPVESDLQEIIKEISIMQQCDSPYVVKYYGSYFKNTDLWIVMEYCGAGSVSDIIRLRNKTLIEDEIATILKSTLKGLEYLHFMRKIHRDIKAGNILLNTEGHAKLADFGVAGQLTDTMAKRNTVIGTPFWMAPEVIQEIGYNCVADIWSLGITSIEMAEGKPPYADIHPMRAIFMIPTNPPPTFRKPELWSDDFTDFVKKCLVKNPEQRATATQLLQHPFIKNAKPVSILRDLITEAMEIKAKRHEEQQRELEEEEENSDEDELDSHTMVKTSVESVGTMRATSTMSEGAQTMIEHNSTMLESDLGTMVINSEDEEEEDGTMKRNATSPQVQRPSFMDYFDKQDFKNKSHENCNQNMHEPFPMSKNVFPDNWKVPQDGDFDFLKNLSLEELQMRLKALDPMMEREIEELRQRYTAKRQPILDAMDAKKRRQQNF

T4: DYRK2(h) (human, UniProt Q92630 1-601, limits assumed)
T4 sequence (looked up): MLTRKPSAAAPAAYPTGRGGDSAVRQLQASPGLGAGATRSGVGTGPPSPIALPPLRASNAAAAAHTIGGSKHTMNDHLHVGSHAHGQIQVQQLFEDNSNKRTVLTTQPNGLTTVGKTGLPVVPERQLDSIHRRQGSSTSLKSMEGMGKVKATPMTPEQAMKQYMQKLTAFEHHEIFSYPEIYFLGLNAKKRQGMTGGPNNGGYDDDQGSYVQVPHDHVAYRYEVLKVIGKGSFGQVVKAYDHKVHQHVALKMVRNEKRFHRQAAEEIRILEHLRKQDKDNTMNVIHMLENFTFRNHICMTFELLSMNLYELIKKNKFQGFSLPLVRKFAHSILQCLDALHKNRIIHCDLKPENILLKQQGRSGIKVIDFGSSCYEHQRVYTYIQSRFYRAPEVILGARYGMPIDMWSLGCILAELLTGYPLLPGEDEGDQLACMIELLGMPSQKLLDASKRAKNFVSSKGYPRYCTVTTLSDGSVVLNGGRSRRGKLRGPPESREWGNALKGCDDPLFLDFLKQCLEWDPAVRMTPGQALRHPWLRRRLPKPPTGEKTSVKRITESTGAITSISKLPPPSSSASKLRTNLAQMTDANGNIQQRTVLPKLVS


Key:
Assay in all cases: cell-based or functional assay
[1] = biological target: ASK1(h) (human, UniProt Q99683 649-946, limits assumed)
[2] = biological target: T1, GRK7(h)
[3] = biological target: T2, Fms(h)
[4] = biological target: MINK(h) (human, UniProt Q8N4C8 1-320, limits assumed)
[5] = biological target: Ab1(h) (human, UniProt P00519 27-1130, limits assumed)
[6] = biological target: Arg(h) (human, UniProt P42684 38-1182, limits assumed)
[7] = biological target: T3, MST2(h)
[8] = biological target: SRPK1(h) (human, UniProt Q96SB4 1-655, limits assumed)
[9] = biological target: GRK6(h) (human, UniProt P43250 1-576, limits assumed)
[10] = biological target: T4, DYRK2(h)
Note: test concentration or dose not given here.

Sequence of MINK(h) (Q8N4C8 1-320 limits assumed): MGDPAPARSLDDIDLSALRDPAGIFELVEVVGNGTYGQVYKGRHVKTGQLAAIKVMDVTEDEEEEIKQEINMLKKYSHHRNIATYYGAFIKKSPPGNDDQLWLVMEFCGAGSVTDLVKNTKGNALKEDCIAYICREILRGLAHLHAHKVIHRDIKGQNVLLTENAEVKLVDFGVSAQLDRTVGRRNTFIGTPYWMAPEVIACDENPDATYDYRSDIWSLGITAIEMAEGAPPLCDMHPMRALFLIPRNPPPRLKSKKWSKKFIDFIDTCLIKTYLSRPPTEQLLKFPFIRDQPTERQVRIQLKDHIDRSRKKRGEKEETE
Sequence of ASK1(h) (Q99683 649-946 limits assumed): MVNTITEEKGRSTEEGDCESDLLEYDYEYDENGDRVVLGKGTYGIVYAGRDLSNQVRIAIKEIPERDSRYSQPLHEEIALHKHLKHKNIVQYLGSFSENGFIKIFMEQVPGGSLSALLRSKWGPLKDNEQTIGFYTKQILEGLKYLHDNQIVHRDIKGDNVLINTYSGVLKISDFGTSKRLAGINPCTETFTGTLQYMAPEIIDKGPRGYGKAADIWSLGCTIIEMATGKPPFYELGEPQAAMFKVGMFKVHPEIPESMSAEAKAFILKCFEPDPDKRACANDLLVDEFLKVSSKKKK
Sequence of GRK6(h) (P43250 whole entry): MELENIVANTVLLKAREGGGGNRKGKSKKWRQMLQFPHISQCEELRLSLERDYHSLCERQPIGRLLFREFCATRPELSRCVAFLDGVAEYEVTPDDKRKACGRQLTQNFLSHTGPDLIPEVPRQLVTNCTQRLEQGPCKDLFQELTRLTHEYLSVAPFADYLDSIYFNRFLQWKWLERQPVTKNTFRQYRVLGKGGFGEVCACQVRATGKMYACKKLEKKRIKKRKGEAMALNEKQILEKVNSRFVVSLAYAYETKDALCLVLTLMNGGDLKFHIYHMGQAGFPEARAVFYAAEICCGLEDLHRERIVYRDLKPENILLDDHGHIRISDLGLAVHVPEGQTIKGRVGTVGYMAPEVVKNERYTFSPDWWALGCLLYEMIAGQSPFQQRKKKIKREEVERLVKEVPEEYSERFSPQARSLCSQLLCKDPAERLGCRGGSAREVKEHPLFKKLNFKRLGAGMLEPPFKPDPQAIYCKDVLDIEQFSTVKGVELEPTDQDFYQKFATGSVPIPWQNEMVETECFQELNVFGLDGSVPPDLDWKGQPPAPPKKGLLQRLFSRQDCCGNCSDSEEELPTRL
Sequence of Arg(h) (P42684 38-1182 limits assumed): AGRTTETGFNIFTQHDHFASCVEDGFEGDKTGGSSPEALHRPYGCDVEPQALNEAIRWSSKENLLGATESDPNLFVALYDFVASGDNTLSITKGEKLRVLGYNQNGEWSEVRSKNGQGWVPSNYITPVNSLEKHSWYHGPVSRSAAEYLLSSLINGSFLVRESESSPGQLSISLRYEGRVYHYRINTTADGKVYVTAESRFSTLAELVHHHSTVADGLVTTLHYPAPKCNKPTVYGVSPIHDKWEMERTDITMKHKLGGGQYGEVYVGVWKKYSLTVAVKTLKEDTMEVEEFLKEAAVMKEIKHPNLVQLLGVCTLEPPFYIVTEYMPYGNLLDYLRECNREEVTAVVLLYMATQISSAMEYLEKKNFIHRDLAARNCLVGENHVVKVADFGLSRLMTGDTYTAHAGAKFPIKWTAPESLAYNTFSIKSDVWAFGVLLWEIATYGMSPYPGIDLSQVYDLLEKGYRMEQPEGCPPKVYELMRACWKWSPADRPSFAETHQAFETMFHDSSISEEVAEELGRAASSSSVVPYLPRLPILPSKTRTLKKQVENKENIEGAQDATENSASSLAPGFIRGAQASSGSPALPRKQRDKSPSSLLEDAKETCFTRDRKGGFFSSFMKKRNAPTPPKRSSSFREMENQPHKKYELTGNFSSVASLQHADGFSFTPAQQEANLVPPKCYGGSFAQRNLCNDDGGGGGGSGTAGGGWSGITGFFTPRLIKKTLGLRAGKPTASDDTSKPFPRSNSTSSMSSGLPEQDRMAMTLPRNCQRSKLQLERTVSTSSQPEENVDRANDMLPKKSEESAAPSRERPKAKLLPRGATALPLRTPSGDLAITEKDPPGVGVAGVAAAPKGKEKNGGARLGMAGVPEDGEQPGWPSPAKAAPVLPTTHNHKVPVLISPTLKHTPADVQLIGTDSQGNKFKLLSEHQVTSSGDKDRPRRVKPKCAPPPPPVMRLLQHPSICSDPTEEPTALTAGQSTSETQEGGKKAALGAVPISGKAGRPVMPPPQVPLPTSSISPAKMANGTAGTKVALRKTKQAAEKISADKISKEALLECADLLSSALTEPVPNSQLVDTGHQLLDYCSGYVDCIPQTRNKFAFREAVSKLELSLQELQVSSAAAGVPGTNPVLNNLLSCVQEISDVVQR
Sequence of Ab1(h) (P00519 27-1130 limits assumed): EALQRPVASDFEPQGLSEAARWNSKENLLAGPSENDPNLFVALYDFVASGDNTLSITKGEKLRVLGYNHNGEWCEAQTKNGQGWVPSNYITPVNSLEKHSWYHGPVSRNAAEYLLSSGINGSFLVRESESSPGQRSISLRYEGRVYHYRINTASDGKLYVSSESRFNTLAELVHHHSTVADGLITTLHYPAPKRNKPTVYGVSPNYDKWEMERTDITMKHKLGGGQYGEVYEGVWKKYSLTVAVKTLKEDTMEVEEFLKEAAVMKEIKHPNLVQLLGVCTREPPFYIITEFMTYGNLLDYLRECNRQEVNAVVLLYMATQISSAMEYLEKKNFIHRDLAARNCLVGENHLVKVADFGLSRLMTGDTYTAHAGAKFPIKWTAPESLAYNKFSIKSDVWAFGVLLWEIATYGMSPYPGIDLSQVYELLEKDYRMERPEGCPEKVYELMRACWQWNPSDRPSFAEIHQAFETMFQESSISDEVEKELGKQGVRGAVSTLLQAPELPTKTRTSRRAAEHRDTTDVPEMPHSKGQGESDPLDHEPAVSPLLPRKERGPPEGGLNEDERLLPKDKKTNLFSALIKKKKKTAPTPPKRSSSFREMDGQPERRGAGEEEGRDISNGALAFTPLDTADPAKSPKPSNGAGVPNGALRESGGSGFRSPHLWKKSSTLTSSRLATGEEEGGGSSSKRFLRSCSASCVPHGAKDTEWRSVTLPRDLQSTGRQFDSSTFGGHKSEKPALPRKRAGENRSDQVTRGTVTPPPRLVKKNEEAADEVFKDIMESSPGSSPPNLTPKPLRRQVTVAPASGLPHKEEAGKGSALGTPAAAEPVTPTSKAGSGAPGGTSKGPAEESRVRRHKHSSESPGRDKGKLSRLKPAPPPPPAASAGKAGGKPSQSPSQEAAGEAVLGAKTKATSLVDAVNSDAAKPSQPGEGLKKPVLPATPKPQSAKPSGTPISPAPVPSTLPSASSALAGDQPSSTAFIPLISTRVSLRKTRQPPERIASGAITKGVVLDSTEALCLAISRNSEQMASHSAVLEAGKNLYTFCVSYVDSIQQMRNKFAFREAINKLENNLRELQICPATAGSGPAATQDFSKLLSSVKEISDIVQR
Sequence of SRPK1(h) (Q96SB4 whole entry): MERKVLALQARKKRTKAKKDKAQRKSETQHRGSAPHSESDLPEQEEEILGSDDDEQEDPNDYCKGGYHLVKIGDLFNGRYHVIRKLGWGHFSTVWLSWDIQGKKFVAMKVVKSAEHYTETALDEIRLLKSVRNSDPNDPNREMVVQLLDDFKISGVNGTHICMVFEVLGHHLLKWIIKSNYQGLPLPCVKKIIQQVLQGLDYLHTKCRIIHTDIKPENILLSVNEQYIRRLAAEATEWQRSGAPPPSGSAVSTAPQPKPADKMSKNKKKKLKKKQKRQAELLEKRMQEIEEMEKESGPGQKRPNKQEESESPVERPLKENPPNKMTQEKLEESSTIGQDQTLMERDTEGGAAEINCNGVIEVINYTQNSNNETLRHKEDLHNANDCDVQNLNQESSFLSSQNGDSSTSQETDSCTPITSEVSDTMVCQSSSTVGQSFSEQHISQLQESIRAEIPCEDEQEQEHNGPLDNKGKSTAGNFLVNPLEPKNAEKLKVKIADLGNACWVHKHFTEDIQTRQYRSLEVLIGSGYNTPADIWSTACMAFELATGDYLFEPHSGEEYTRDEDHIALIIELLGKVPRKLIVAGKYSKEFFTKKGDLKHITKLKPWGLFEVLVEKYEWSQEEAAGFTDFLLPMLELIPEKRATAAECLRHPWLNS

Row | % activity [1] [%] | % activity [2] [%] | % activity [3] [%] | % activity [4] [%] | % activity [5] [%] | % activity [6] [%] | % activity [7] [%] | % activity [8] [%] | % activity [9] [%] | % activity [10] [%] | Binder
1 | 80 | 122 | 45 | 48 | 69 | 72 | 19 | 90 | 147 | 155 | FAKLAARLYRKALARQLGVAA [MMI-0300]
2 | 69 | 100 | 37 | 52 | 84 | 84 | 11 | 96 | 141 | 195 | KAFAKLAARLYRKALARQLGVAA [MMI-0400]
